The record followed here is the DeepSol protein solubility set.

The data set in a line: soluble on expression in E. coli; label from the status in PepcDB or PDB records.
On to “MSYSSQGVVEKGKVMPGDVLATIEEFLPGEGVYVDPVKGFIRAAAPGVAYLDMSRRIAYVKPHKKPQTPGPGSEVAALVTGVRGDLVVAEVYGVVRLSPKPAWLYELPSPYSAAIPISQIADEYIKNIEDYYRMGDWILAKIVSRTPPFTLSTVEPRYGVVYAICSRCGAVMEFQSERSMKCPKCGNVEKRKVSIHAKSRHLRIRLVRNLVIYRS”, for which the “soluble on expression in E. coli” value is reported as “soluble”. As to “MSYYHHHHHHLESTSLYKKAGLQALLLEQQDGKTLASVQTLDESRLPEGDVTVDVHWSSLNYKDALAITGKGKIIRNFPMIPGIDFAGTVRTSEDPRFHAGQEVLLTGWGVGENHWGGLAEQARVKGDWLVAMPQGLDARKAMIIGTAGFTAMLCVMALEDAGVRPQDGEIVVTGASGGVGSTAVALLHKLGYQVVAVSGRESTHEYLKSLGASRVLPRDEFAESRPLEKQVWAGAIDTVGDKVLAKVLAQMNYGGCVAACGLAGGFTLPTTVMPFILRNVRLQGVDSVMTPPERRAQAWQRLVADLPESFYTQAAKEISLSEAPNFAEAIINNQIQGRTLVKVN”, the “soluble on expression in E. coli” value is reported as “soluble”. As for “MSYYLVQSTDEDILKHAECGGAVTAFFKYLLDKKLVDGVLALKKGEDVYDGLPYLVNDSKELVETCGSLHCAPTMFGNMISKHLKDMNLAVSVKPCDAMAIVELEKRHQIDKDKLYTIGLNCGGTVPPQTAKKMIELFYDVDPEDVIKEEIDKGKFIIELKDGSEKSVKIDELEEEGYGRRTNCQRCELKVPRNSDLACGNWGTEKGWTFVEVGSEKGEELLKNAQKEGYINVKAPSEKALEIRGKIEKSMINLGKKFQKEQLDEKYPEPEKWDEYWSRCIKCYGCRDVCPICFCKECALGEDYLDKGTIPPDPIMFQGIRLSHMSFSCINCGQCEDVCPVEIPLAKIYHRAQLKIRETTGFVPGIDDSMPFLYKLEHHHHHH”, the entry is “not soluble”; as for “MTAANLTEQQRLELEAAAFRTLVHHLQTRKDVQNIDLMNLAGFCRNCLSKWYKAAADDLGVEVSNDQAREEIYGMPYAEWKAKYQKEASPEQQAAFAKSQGNA”, “not soluble”. As for “MTAASLDPTAFSLDAASLAARLDAVFDQALRERRLVGAVAIVARHGEILYRRAQGLADREAGRPMREDTLFRLASVTKPIVALAVLRLVARGELALDAPVTRWLPEFRPRLADGSEPLVTIHHLLTHTSGLGYWLLEGAGSVYDRLGISDGIDLRDFDLDENLRRLASAPLSFAPGSGWQYSLALDVLGAVVERATGQPLAAAVDALVAQPLGMRDCGFVSAEPERFAVPYHDGQPEPVRMRDGIEVPLPEGHGAAVRFAPSRVFEPGAYPSGGAGMYGSADDVLRALEAIRANPGFLPETLADAARRDQAGVGAETRGPGWGFGYLSAVLDDPAAAGTPQHAGTLQWGGVYGHSWFVDRALGLSVLLLTNTAYEGMSGPLTIALRDAVYAR”, the “soluble on expression in E. coli” value is recorded as “soluble”. In the case of “MTADIRFDEKGLVPAIVQDAQSKEVLTLAYMNKESLEKTLETGETWFYSRSRQELWHKGATSGNVQRVVDIRYDCDADALLVLVEPAGPACHTGSYSCFSRSLDGAARTPAADRFAILNELEQIIAKRDAERPEGSYTTYLFEKGVDKILKKVGEEAAEVIIAAKNQNHEELKWEAADLLYHLLVLLREQKLPLDAVLATLAERHAQKVGAGDKKE” it was “not soluble”. In the case of “MTAPGSMPLTVIGGFLGAGKTTLLNYLLKVQHSERVLVMVNDFGSINIDAELLDQGRHDRPGVVRLQNGCVCCSIGGDLMQAFLQVMSMPDRPDRIIVEASGVADPTRIAQIGRVSGGLSDEGVITLVDASAVRTLAADKYVGDIVRQQILSADIVLLNKLDLSSDAEIVETRAWLRDLAPRTRVVSCIHGEVDAVSVLGIGAGKVAPDAAGGPVDVPVPDLRRASTRHADTFHSSTLATAHRFDRRRIEYALDALPQTVLRGKGFVELEGEATPALLQLCGSRWTLDPVSTPAPPAGTHLVFIATGGRGVPRFDAPSHFEQALASRDAASADTSNLEHHHHHH” it was “soluble”; in that of “MTAPSLDNWEKRKRFVELPRKRQMAFIDTGGPGPVLLMLHGFSDTSRSFSIIEPYFQEYRLIAPDLPGHGASSVGHGFHVADFAETIDRFLTLMGVSRFFVLGHSMGAMTAIELAARRSSSVRGLALISGTLEPDFGTESKLARDILALRDPIKPAGGFLHDWYSCSRPVNEEFLFRMKRDAANMAATTWHGVLKAFAETDLHYSASKINVPVLCLAGSEDPLFDDSHRQQLFEAFPLAQTVTMPGHGHNPHWENPQGVSTLVTEFFAEVMTDASPVRVETAADKR”, “not soluble”.

For the sequence “MTAPTAHDYDVVIIGGGPAGLTAAIYTGRAQLSTLILEKGMPGGQIAWSEEVENFPGFPEPIAGMELAQRMHQQAEKFGAKVEMDEVQGVQHDATSHPYPFTVRGYNGEYRAKAVILATGADPRKLGIPGEDNFWGKGVSTCATCDGFFYKGKKVVVIGGGDAAVEEGMFLTKFADEVTVIHRRDTLRANKVAQARAFANPKMKFIWDTAVEEIQGADSVSGVKLRNLKTGEVSELATDGVFIFIGHVPNTAFVKDTVSLRDDGYVDVRDEIYTNIPMLFAAGDVSDYIYRQLATSVGAGTRAAMMTERQLAALEVEGEEVTAAD”, the “soluble on expression in E. coli” value was “soluble”. As for “MTAQTHNDVAVCWNQNANQWTSDVRNGYDVYRDFFTLPAFLQFLPTMADLNVIDFGCGEGSNTRHFAQMGAKVVGIDISNGLIEHARQAERVDPVGITYKIVSYSSDTGFPASSFDAVVSTMALMDGPDLQGAMHEAYRLLRPGGFVAFSVLHPCFITPGWQWQKDENGQTTGLCTSRYFDKSGFTENWKFGNRPKDENVAPFAVPRFPRTIGDYINAVASVGFRISKIEEPQPTEEACKAIPQLRRWRDLGAFLLLVIAERPKLEHHHHHH”, the entry is “soluble”; as for “MTATHDTIRLAEIAAKAAAEKLATNIAVIDVSDVMAISEVFVLASADNERQVRSIVEEIEDMLTAEGEEPKRREGNRENRWVLLDYGMLVIHVQRNTERDFYGLDRLYQDCPLIEVEGIDTMARPEEWAQDVDVRTVESLDEIPLAGEEPADEEF”, “not soluble”; as for “MTCDDLKSGEKRLIPKPTCRFKDAFQQYPDLLKSIIRVGILKPTPIQSQAWPIILQGIDLIVVAQTGTGKTLSYLMPGFIHLDSQPISREQRNGPGMLVLTPTRELALHVEAECSKYSYKGLKSICIYGGRNRNGQIEDISKGVDIIIATPGRLNDLQMNNSVNLRSITYLVIDEADKMLDMEFEPQIRKILLDVRPDRQTVMTSATWPDTVRQLALSYLKDPMIVYV”, “soluble”. In the case of “MTDDKKMFDINEFLKRHLFVKNWVNYRQQSYTKYELMQLIESVEAALSVDDTLAKISPPVTIVGDIHGQYPDLVRVLCNQNSKEDAKKKAAYGFCNSRFVFLGDYVDRGHHSIECISLVFALKVVYPTNYILLRGNHETKSINYTYGFREELVNRLGPIDGFEIWERFNVAFSWMPLACLVGHKILCMHGGISPKLHSLKEINEIDRPVAEILPDSLAQDLLWADPADGQGAMTVRSTPEYVPNGVRGLSFIFNEAAVRDTCKRLNINLIVRAHQMIPEGFKFFADQKLLTIFSAPRYMNETDNHGATLRVETDGKLNIGRFRHKKLLHANSADEITRGDDIPNLERKKSGSMPVKHLKTSSSSSPSHSNGKSKGGEGLSLGKI” it was “not soluble”; in that of “MTDFTTDIAQALVRKEDLKEVFRTHLENAVNTLLATELTAFLDYEKYDRGGFGSGNSRNGTYPRTLHTEFGDLHLSIPRDRNGEFHQQTISPYKRSNDTLESFVIHMYQKGVTTGEITDLLERMYGHHYTPQTISNMTKTMEKQVEAFKARTLAKRYVCVYLDATFIAIKRDTVSKEAVYLAIGIQEDGTKEVLAYTIAPTESALVWKEVLEDLQNRGVEDVLLFVSDGLKGIVDSIQSLFPSSSYQLCCVHLSRNLAHKVRVSDRAEVCGDFKRVYRATSKQEGQKALDDFVTKWKKVYPRATKSLEENPFILTFYDFPQAIWRSIYSTNLIESFNKQLKKYSKRKEQFPNEPSIERFLVSQFEPYNQKFSTRCHLGFDLARAELVSMFERRK”, “soluble”; in that of “MTDHSIRSRALGAYLGLACGDALGATVEFLTKGEIAHQYGVHKHIKGGGWLKLPAGQVTDDTEMSIHLGRAILAAPEWDARRAAEEFAVWLKGVPVDVGDTTRRGIRRFIMHGTLSEPESEYHAGNGAAMRNLPVALATLGDDAAFERWTVEQAHITHCNAMSDAATLTLGHMVRRLVLGGDVRDVRDESNKLIAKHRQFKFQPYRGLATAYIVDTMQTVMHYYFQTDSVESCVVETVNQGGDADTTGAIAGMLAGATYGVETIPPRWLRKLDRDVYNEICAQVDGLLARAPALKQG”, “soluble”.
